This test concerns the target IQGAP1 (Ras GTPase-activating-like protein IQGAP1) (human (endogenous in INT 407)) (UniProt P46940). Put plainly: co-IP; INT 407 cells non-infected or infected for 45 min with C. jejuni wild-type strain (F38011 or 81-176) or the ∆ciaD mutant; lysis in IP buffer with 50 mM NaCl; IP with mouse anti-IQGAP1 and Protein A/G agarose; immunoblots for RacGAP1, Rac1, Erk 1/2.

Among the data in article PMC7910587 are reduction of RacGAP1 in the IQGAP1 complex on infection with the wild-type strain values, retold here.

Chain of UniProt P46940 (P46940 whole entry): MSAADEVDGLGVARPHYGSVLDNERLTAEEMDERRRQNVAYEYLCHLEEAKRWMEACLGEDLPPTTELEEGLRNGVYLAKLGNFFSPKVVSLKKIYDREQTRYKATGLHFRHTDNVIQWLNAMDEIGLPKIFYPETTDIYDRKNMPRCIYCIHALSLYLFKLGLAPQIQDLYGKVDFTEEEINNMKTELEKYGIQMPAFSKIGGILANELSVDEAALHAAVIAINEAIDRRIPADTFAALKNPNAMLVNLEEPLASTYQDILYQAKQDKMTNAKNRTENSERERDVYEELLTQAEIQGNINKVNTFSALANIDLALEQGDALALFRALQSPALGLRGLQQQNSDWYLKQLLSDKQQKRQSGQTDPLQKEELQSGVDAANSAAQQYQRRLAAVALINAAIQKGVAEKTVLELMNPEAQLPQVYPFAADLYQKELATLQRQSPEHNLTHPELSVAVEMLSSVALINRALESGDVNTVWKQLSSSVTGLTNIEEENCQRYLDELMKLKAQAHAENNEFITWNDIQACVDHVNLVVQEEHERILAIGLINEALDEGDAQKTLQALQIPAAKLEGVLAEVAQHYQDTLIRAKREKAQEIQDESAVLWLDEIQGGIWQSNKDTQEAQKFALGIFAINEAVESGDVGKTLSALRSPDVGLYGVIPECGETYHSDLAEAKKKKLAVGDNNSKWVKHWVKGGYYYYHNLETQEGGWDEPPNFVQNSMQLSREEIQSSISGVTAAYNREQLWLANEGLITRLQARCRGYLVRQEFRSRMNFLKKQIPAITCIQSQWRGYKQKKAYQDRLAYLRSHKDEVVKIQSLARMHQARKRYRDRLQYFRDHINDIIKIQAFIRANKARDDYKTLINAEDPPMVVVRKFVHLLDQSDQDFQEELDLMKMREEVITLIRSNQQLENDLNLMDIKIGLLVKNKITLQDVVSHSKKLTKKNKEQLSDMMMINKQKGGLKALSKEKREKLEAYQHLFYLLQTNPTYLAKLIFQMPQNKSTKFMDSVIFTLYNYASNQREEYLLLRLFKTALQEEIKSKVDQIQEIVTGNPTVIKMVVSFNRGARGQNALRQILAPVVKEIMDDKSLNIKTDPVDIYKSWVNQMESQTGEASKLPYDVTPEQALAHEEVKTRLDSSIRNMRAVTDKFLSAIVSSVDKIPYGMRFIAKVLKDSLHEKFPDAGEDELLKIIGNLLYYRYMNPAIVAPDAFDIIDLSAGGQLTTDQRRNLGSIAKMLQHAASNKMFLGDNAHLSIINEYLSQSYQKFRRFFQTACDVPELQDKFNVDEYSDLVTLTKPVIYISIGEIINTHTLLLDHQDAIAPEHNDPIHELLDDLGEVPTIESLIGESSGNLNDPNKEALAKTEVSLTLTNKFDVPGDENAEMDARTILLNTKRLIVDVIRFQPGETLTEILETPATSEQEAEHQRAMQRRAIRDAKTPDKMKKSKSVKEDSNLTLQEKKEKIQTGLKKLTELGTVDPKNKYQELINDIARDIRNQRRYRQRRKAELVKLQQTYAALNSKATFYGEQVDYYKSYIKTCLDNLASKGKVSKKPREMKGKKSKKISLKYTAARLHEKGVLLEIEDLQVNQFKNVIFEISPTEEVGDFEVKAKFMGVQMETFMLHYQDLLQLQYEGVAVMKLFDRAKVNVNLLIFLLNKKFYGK

On to “CiaD effector protein of the C. jejuni F38011 wild-type strain (from UniProt Q0PAA2 1-163) (natural protein)”, for which the reduction of RacGAP1 in the IQGAP1 complex on infection with the wild-type strain worked out at 50%.
